Assay results reported in paper PMC12375108.

Assays:
[1] = target: GST-tagged E. coli hinT H101N (E. coli) (UniProt P0ACE7); experiment: BLI; GST-hinT (90 nM) immobilised on anti-GST biosensors; sucA-AMP 500 to 7.81 nM, unmodified sucA at 500 nM; 10 mM Tris pH 8, 150 mM NaCl, 0.1% Triton X-100; KD from steady-state responses, one site
[2] = target: GST-tagged H. sapiens hinT H112N (human) (UniProt P49773); experiment: as above
[3] = target: AMPylated GlnA (glutamine synthetase), recombinant (E. coli) (UniProt P0A9C5); experiment: cryo-EM structure; GlnA (4.68 mg/ml) mixed with hinT (3.29 mg/ml), 1:3 molar ratio of monomers; 10 mM Tris pH 8, 150 mM NaCl, 2 mM DTT

Sequence of GST-tagged H. sapiens hinT H112N (human) (P49773 whole entry H112N): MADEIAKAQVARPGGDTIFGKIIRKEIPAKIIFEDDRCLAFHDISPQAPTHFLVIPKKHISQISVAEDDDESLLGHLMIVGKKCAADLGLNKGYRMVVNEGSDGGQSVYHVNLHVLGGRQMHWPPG

Row | Kd [1] [µM] | Kd [2] [µM] | stoichiometry N (hinT dimers per GlnA dodecamer) [3] | Substance
1 | 0.027 | 0.01 |  | AMPylated sucA (from UniProt P0AFG3 1-933) (enzyme)
2 |  |  | < 6 | E. coli hinT H101N (untagged) (from UniProt P0ACE7 1-119) (enzyme)
